{
  "source": "patent US9878046B2",
  "about": "“Adverse side-effects associated with administration of an anti-hyaluronan agent and methods for ameliorating or preventing the side-effects” (Halozyme, Inc., priority 2010, dated 2018)",
  "molecules": {"B1": {"name": "PEGPH20 (protein)", "chain": "LNFRAPPVIPNVPFLWAWNAPSEFCLGKFDEPLDMSLFSFIGSPRINATGQGVTIFYVDRLGYYPYIDSITGVTVNGGIPQKISLQDHLDKAKKDITFYMPVDNLGMAVIDWEEWRPTWARNWKPKDVYKNRSIELVQQQNVQLSLTEATEKAKQEFEKAGKDFLVETIKLGKLLRPNHLWGYYLFPDCYNHHYKKPGYNGSCFNVEIKRNDDLSWLWNESTALYPSIYLNTQQSPVAATLYVRNRVREAIRVSKIPDAKSPLPVFAYTRIVFTDQVLKFLSQDELVYTFGETVALGASGIVIWGTLSIMRSMKSCLLLDNYMETILNPYIINVTLAAKMCSQVLCQEQGVCIRKNWNSSDYLHLNPDNFAIQLEKGGKFTVRGKPTLEDLEQFSEKFYCSCYSTLSCKEKADVKDTDAVDVCIADGVCIDAFLKPPMETEEPQIFY"}},
  "key": {"[1]": {"test_system": "46 different cytokines, chemokines, acute-phase reactants, and other plasma inflammatory biomarkers", "test": "Human inflammation multi-analyte profile (MAP) of patient plasma", "type": "in vivo", "settings": "first two patients, single IV dose 0.05 mg/kg", "method": "The patient plasma samples also were analyzed using a human inflammation multi-analyte profile (MAP) of 46 different cytokines, chemokines, acute-phase reactants, and other plasma inflammatory biomarkers."}, "[2]": {"test_system": "PC3 prostate carcinoma cell line", "test": "Antitumor activity in PC3 prostate cancer xenograft model", "type": "in vivo, human (xenograft in athymic male nude mice)", "set-up": "key to % TGI (% Tumor Growth Inhibition): TR = Tumor Regression", "method": "Tumor cells from the PC3 prostate carcinoma cell line were grown to approximately 80% confluency then trypsinized, collected, washed once in HBSS (Hank's balance salt solution, Mediatech Inc.), then re-suspended in 50% Matrigel® in HBSS at 2×10^7 cells/mL on ice before inoculation into animals. Athymic male nude mice (Nu/Nu (Ncr); Taconic Farms; average weight ˜20 g) were inoculated intramuscularly (IM) with 0.05 mL of this cell suspension, peritibially, in the left hind leg (adjacent to the tibia periosteum). The implants in the animals were assessed twice a week and allowed to grow to a mean tumor volume of approximately 500 mm^3 (Day −2; Table 12). Actual tumor volumes were determined using VisualSonics Vevo 770 high-resolution ultrasound, using two perpendicular axial dimensions.\nAnimals were sorted randomly and grouped into 6 groups of 8 mice per group (6+2 satellite mice). Treatment groups were vehicle (API buffer), PEGPH20 (157,500 Units/kg, 4.5 mg/kg), low dose dexamethasone (1.25 mg/kg), high dose dexamethasone (5 mg/kg), PEGPH20 (4.5 mg/kg)+low dose dexamethasone (1.25 mg/kg) and PEGPH20 (4.5 mg/kg)+high dose dexamethasone (5 mg/kg). The dose and frequency of the PEGPH20 (or vehicle) intravenous injections was 157,500 Units/kg or approximately 4.5 mg/kg, every 3rd day starting on Day 0 (Days 0, 3, 6, 9, 12) with a total of 5 injections (Q3Dx5) with a dose volume of 0.1 mL. This dosing and frequency regimen was previously shown to inhibit xenograft tumor growth by 34-70%. The doses and frequency of the dexamethasone intraperitonal injections were 1.25 mg/kg at the low dose and 5 mg/kg at the high dose, once a day until Day 13 (QDx13) with a dose volume of 0.1 mL.\nThe tumor volumes of all mice were measured pre-treatment on Day −2 (average tumor volume of ˜500 mm^3) and on Day 1, 6, 9, 13, 16 and 20 by capturing images using the VisualSonic ultrasound system and using an ultrasound imaging software program to calculate tumor volume (Table 12)."}, "[3]": {"test_system": "soluble plasma hyaluronan", "test": "Soluble plasma hyaluronan ELISA in BxPC3 model mice", "type": "in vivo", "settings": "PEGPH20 4.5 mg/kg alone or + dexamethasone (high or low dose)", "method": "Plasma samples were additionally used to measure soluble plasma hyaluronan in the control group and each of the treatment groups (R&D Systems Catalog #DY3614; ELISA assay). In the vehicle control group, the plasma hyaluronan levels ranged from 2,000 to 4,000 ng/mL."}, "[4]": {"test_system": "BxPC3 pancreatic cancer cell line", "test": "Antitumor activity in BxPC3 pancreatic cancer xenograft model", "type": "in vivo, human (xenograft in athymic female nude mice)", "method": "Tumor cells from the BxPC3 pancreatic cancer cell line were grown to approximately 80% confluency, trypsinized, collected, washed once in HBSS (Hank's balance salt solution, Mediatech Inc.), and re-suspended in 50% Matrigel in HBSS at 2×10^7 cells/mL on ice before inoculation into animals. Athymic female nude mice (average weight ˜20 g) were inoculated intramuscularly (IM) with 0.05 mL of cell suspension, peritibially, in the left hind leg (adjacent to the tibia periosteum). The tumors in the animals were assessed twice a week and allowed to grow to a mean tumor volume of approximately 250 mm^3 (Day −1; Table 13). Actual tumor volumes were determined using VisualSonics Vevo 770 high-resolution ultrasound.\nThe animals were randomly grouped into 6 groups of 8 animals per group (6+2 satellite mice) and treated with vehicle (API buffer), PEGPH20 (157,500 Units/kg, 4.5 mg/kg), low dose dexamethasone (1.25 mg/kg), high dose dexamethasone (5 mg/kg), PEGPH20 (4.5 mg/kg)+low dose dexamethasone (1.25 mg/kg) and PEGPH20 (4.5 mg/kg)+high dose dexamethasone (5 mg/kg). The dose and frequency of the PEGPH20 (or vehicle) intravenous injections was 157,500 Units/kg or approximately 4.5 mg/kg, on Days 0, 3, 7, 10, 13 and 17 for a total of 6 injections starting on Day 0 (dose volume of 0.1 mL). The doses and frequency of the dexamethasone intraperitonal injections was 1.25 mg/kg at the low dose and 5 mg/kg at the high dose, once a day until Day 17 (QDx17) with a dose volume of 0.1 mL.\nThe tumor volumes of all mice were measured pre-treatment on Days −4 and −1 (mean tumor volume of ˜250 mm^3) and on Days 4, 7, 11, 14 and 17 by capturing images using the VisualSonic ultrasound system and using an ultrasound imaging software program to calculate the tumor volume (Table 13). The percent tumor growth inhibition (% TGI) was calculated as described above in Example 9A."}, "[5]": {"test_system": "PC3 prostate carcinoma cell line", "settings": "157,500 Units/kg (about 4.5 mg/kg) IV Q3Dx5; cited from earlier work"}},
  "data": [
    {"molecule": "B1", "values": [
      {"measurement": "inflammation MAP findings", "setting": "[1]", "result": "No notable findings"},
      {"measurement": "Tumor volume", "setting": "[2]; Day 1, PEGPH20 4.5 mg/kg IV Q3Dx5 and/or dexamethasone 1.25 mg/kg IP QDx13", "result": 394.38, "unit": "mm^3"},
      {"measurement": "% TGI (% Tumor Growth Inhibition)", "setting": "[2]; Day 1, PEGPH20 4.5 mg/kg alone or + dexamethasone 1.25 mg/kg", "result": "TR"},
      {"measurement": "Tumor volume", "setting": "[2]; Day 6, PEGPH20 4.5 mg/kg IV Q3Dx5 and/or dexamethasone 1.25 mg/kg IP QDx13", "result": 598.39, "unit": "mm^3"},
      {"measurement": "% TGI (% Tumor Growth Inhibition)", "setting": "[2]; Day 6, PEGPH20 4.5 mg/kg alone or + dexamethasone 1.25 mg/kg", "result": 71, "unit": "%"},
      {"measurement": "Tumor volume", "setting": "[2]; Day 9, PEGPH20 4.5 mg/kg IV Q3Dx5 and/or dexamethasone 1.25 mg/kg IP QDx13", "result": 674.83, "unit": "mm^3"},
      {"measurement": "% TGI (% Tumor Growth Inhibition)", "setting": "[2]; Day 9, PEGPH20 4.5 mg/kg alone or + dexamethasone 1.25 mg/kg", "result": 64, "unit": "%"},
      {"measurement": "Tumor volume", "setting": "[2]; Day 13, PEGPH20 4.5 mg/kg IV Q3Dx5 and/or dexamethasone 1.25 mg/kg IP QDx13", "result": 827.53, "unit": "mm^3"},
      {"measurement": "% TGI (% Tumor Growth Inhibition)", "setting": "[2]; Day 13, PEGPH20 4.5 mg/kg alone or + dexamethasone 1.25 mg/kg", "result": 56, "unit": "%"},
      {"measurement": "Tumor volume", "setting": "[2]; Day 16, PEGPH20 4.5 mg/kg IV Q3Dx5 and/or dexamethasone 1.25 mg/kg IP QDx13", "result": 1046.73, "unit": "mm^3"},
      {"measurement": "% TGI (% Tumor Growth Inhibition)", "setting": "[2]; Day 16, PEGPH20 4.5 mg/kg alone or + dexamethasone 1.25 mg/kg", "result": 47, "unit": "%"},
      {"measurement": "Tumor volume", "setting": "[2]; Day 20, PEGPH20 4.5 mg/kg IV Q3Dx5 and/or dexamethasone 1.25 mg/kg IP QDx13", "result": 1310.85, "unit": "mm^3"},
      {"measurement": "% TGI (% Tumor Growth Inhibition)", "setting": "[2]; Day 20, PEGPH20 4.5 mg/kg alone", "result": 41, "unit": "%"},
      {"measurement": "Tumor volume", "setting": "[2]; Day −2 (pre-treatment), PEGPH20 4.5 mg/kg IV Q3Dx5 and/or dexamethasone 1.25 mg/kg IP QDx13", "result": 491.10, "unit": "mm^3"},
      {"measurement": "plasma hyaluronan", "setting": "[3]", "result": "no detectable (below limit of quantitation) hyaluronan"},
      {"measurement": "Tumor volume", "setting": "[4]; Day 4, PEGPH20 4.5 mg/kg IV x6 and/or dexamethasone 1.25 mg/kg IP QDx17", "result": 350.44, "unit": "mm^3"},
      {"measurement": "% TGI (% Tumor Growth Inhibition)", "setting": "[4]; Day 4, PEGPH20 4.5 mg/kg alone or + dexamethasone 1.25 mg/kg", "result": 68, "unit": "%"},
      {"measurement": "Tumor volume", "setting": "[4]; Day 7, PEGPH20 4.5 mg/kg IV x6 and/or dexamethasone 1.25 mg/kg IP QDx17", "result": 394.40, "unit": "mm^3"},
      {"measurement": "% TGI (% Tumor Growth Inhibition)", "setting": "[4]; Day 7, PEGPH20 4.5 mg/kg alone or + dexamethasone 1.25 mg/kg", "result": 63, "unit": "%"},
      {"measurement": "Tumor volume", "setting": "[4]; Day 11, PEGPH20 4.5 mg/kg IV x6 and/or dexamethasone 1.25 mg/kg IP QDx17", "result": 473.50, "unit": "mm^3"},
      {"measurement": "% TGI (% Tumor Growth Inhibition)", "setting": "[4]; Day 11, PEGPH20 4.5 mg/kg alone or + dexamethasone 1.25 mg/kg", "result": 60, "unit": "%"},
      {"measurement": "Tumor volume", "setting": "[4]; Day 14, PEGPH20 4.5 mg/kg IV x6 and/or dexamethasone 1.25 mg/kg IP QDx17", "result": 596.96, "unit": "mm^3"},
      {"measurement": "% TGI (% Tumor Growth Inhibition)", "setting": "[4]; Day 14, PEGPH20 4.5 mg/kg alone or + dexamethasone 1.25 mg/kg", "result": 54, "unit": "%"},
      {"measurement": "Tumor volume", "setting": "[4]; Day 17, PEGPH20 4.5 mg/kg IV x6 and/or dexamethasone 1.25 mg/kg IP QDx17", "result": 790.16, "unit": "mm^3"},
      {"measurement": "% TGI (% Tumor Growth Inhibition)", "setting": "[4]; Day 17, PEGPH20 4.5 mg/kg alone or + dexamethasone 1.25 mg/kg", "result": 48, "unit": "%"},
      {"measurement": "Tumor volume", "setting": "[4]; Day −1 (pre-treatment), PEGPH20 4.5 mg/kg IV x6 and/or dexamethasone 1.25 mg/kg IP QDx17", "result": 275.75, "unit": "mm^3"},
      {"measurement": "Tumor volume", "setting": "[4]; Day −4 (pre-treatment), PEGPH20 4.5 mg/kg IV x6 and/or dexamethasone 1.25 mg/kg IP QDx17", "result": 196.87, "unit": "mm^3"},
      {"measurement": "xenograft tumor growth inhibition, previously shown", "setting": "[5]", "result": "34-70%"}
    ]}
  ]
}
